From publication PMC6800434, “Assessment of glucagon receptor occupancy by Positron Emission Tomography in non-human primates” (Scientific Reports, 2019)
Several values for one entry are separate records, joined by “and”; a condition that tells them apart may be missing. Equal entries are not always repeated. Positions of bridges follow the written chain, without caps; N, C: chain ends. Non-standard residues stand in square brackets, D forms with d. Residues, ends and D or L forms follow the SMILES beside them. *: point of attachment. DO3A(CH2CH2SO2CH2CH2) = O=C(O)CN1CCN(CCS(=O)(=O)CC*)CCN(CC(=O)O)CCN(CC(=O)O)CC1; Ala(4-thiazolyl) = N[C@@H](Cc1cscn1)C(=O)O

Experiments:
[1] = In vivo metabolic stability in venous plasma (radio-HPLC); design: species or system cynomolgus monkeys; details: NHP in vivo, n = 3
Description: For NHP 5–7, venous blood samples were taken at 5, 30 and 60 min for assessment of in vivo metabolic stability of [^68Ga]Ga-DO3A-S01-GCG, using HPLC methods described below. The percentage of intact [^68Ga]Ga-DO3A-S01-GCG was plotted against time from administration and fitted to a mono-exponential function.
Blood samples were centrifuged at 4000 rpm for 2 minutes at 4 °C (Beckman Allegra X-22R Centrifuge, Palo Alto, USA). From the plasma, 0.5 ml was taken and an equal volume of acetonitrile was added to precipitate the proteins. The mixture was centrifuged at 13200 rpm at 4 °C for 1 min (Eppendorf 5415 R centrifuge, Eppendorf AG, Hamburg, Germany). The supernatant was filtered through a 0.2 μm nylon membrane (Corning Incorporated, Corning, NY, USA) by centrifugation at 13200 rpm at 4 °C for 1 min. 500 µl of the filtered supernatant was diluted with 1500 µl H2O; thereafter, 30 µl of 0.01 mM unlabelled DO3A-S01-GCG was added to the mixture. The sample preparation recovery was determined by measuring the radioactivity in the plasma, filters and pellet.
HPLC analysis was performed using a binary pump system (Gilson, Middleton, USA). The sample (1.8 ml) was injected using an automated solid phase extraction controller (ASPEC Gilson) connected to a dilutor (Gilson). The separation was performed on an Xbridge Prep BEH130 C18 (peptide separation technology) 250 mm × 10 mm, 5 µm with a 10 × 10 mm C18 security guard from the same supplier. The HPLC system was operated at a flow rate of 6 ml/min. The mobile phase consisted of 0.1% TFA in MilliQ: 0.1% TFA in Acetonitrile. Gradient elution mode was used for the separation (Gradient: 0–7 min: 5–70%, 7–12 min: 70%, 12–13 min: 70–5%, 13–15 min: 5%).
A second method was developed with a lesser gradient, to determine if any metabolites were co-eluting with the DO3A-S01-GCG peak. A UV detector (Gilson) was used to detect unlabelled DO3A-S01-GCG at 220 nm. […] Six fractions were collected, and the radioactivity in the fractions was measured by a well-type scintillation counter. […]

[2] = Human predicted radiation dosimetry extrapolated from NHP biodistribution (OLINDA/EXM 1.1)
Description: The predicted dosimetry of [^68Ga]Ga-DO3A-S01-GCG in human males was estimated based on the in vivo biodistribution in NHPs as captured by dynamic PET examinations. The baseline PET examinations in NHP 2–7 (n=6) were averaged for the dosimetry analysis. […] However, the uptake in the brain in NHP is likely negligible based on observations in rat (5) as well as a whole-body PET/CT examination performed on NHP1 90–120 minutes post [^68Ga]Ga-DO3A-S01-GCG administration.
The dosimetry calculations were performed as described previously for [^68Ga]Ga-DO3A-VS-Cys^40-Exendin4[4] and [^68Ga]Ga-DO3A-S01-GCG in rat[5].
In brief, dynamic NHP organ uptake as measured by PET and expressed as SUV was normalised to that of human organs (using tissue weights of whole-body adult reference phantoms). The decay-corrected and normalized SUVs were back-corrected to count rates to calculate the actual radiation burden in each tissue. The tissue residence times (MBq-h/MBq) were assessed by trapezoidal approximation of the un-decay corrected human SUV biodistribution data. The tissue washout from the last time point (90 minutes) until infinity was estimated by a single mono-exponential fit.
The estimation of the absorbed dose was performed by the OLINDA/EXM 1.1 software, where the calculations were based on the adult reference male or female phantoms to obtain the absorbed dose estimate in humans (ICRP60). The organ specific doses are reported as mGy/MBq (effective dose as mSv/MBq). The amount of MBq that can be safely administered annually (MBq/year) was calculated for each organ as well as the effective dose, by dividing the limiting dose (10 mSv/year for the effective dose, 150 mGy/year for all tissues except for red marrow with 50 mGy/year) by the dose (mGy/MBq or mSv/MBq).

human spleen sections = assay: In vitro autoradiography of spleen sections; format: binding; details: 10 µM GCG or 1 µm DO3A-S01-GCG precursor, 60 min RT, n = 3
Description: (§1) Splenic binding of [^68Ga]Ga-DO3A-S01-GCG was previously observed in rat in vivo[5]. This assay was performed to elucidate if splenic binding in human and NHP in vivo would be expected.
(§2) Spleen tissue was collected post-mortem from the NHP and Sprague Dawley rat. Biopsies from donor human spleen were obtained from Uppsala Biobank (sample collection 827) and approved by local ethical review board (Drn 2016/465).
(§3) The splenic biopsies were processed to 10 µm frozen tissue sections by a cryotome. The sections were pre-incubated in phosphate-buffered saline (PBS) (pH 7.4, 1% Bovine Serum Albumin (BSA)) for 10 min at room temperature (RT). Then, the sections were incubated with 5 nM [^68Ga]Ga-DO3A-S01-GCG in […] PBS (pH 7.4, 1% BSA), either alone or in the presence of 10 µM GCG or 1 µm DO3A-S01-GCG precursor for 60 min at RT.
(§4) After incubation, the sections were washed three times, first with assay buffer (PBS pH 7.4 1% BSA) and then twice with PBS for 1 minute. Sections were carefully dried at 37 °C and then exposed against a digital phosphorimager plate, together with a 20 µl reference from the buffer calibrated against a gamma-counter to enable quantification to fmol bound radioligand/mm^3. The phosphorimager plates were scanned using a Cyclone Plus Phosphor imager (Perkin Elmer) at 600 dpi, and the resulting autoradiograms analysed by ImageJ (NIH, Bethesda). […]

NHP spleen sections = assay: In vitro autoradiography of spleen sections; format: binding; details: 10 µM GCG or 1 µm DO3A-S01-GCG precursor, 60 min RT, n = 3
Description: as §1, §2, §3, §4

rat spleen sections = assay: In vitro autoradiography of spleen sections; format: binding, Sprague Dawley rat; details: 10 µM GCG or 1 µm DO3A-S01-GCG precursor, 60 min RT, n = 3
Description: as §1, §2, §3, §4

[3] = extrapolated from NHP 2-7 baseline PET (n = 6)

Compound: CC[C@H](C)[C@H](NC(=O)[C@H](Cc1ccccc1)NC(=O)[C@H](CCC(=O)O)NC(=O)[C@@H]1CCCCNC(=O)CC[C@H](NC(=O)[C@H](CC(=O)O)NC(=O)[C@H](CC(C)C)NC(=O)[C@H](CCC(N)=O)NC(=O)[C@H](CCCCN)NC(=O)[C@H](CO)NC(=O)[C@H](Cc2ccc(O)cc2)NC(=O)[C@H](CC(=O)O)NC(=O)[C@H](CO)NC(=O)[C@@H](NC(=O)[C@H](Cc2ccccc2)NC(=O)[C@@H](NC(=O)CNC(=O)[C@H](CCC(N)=O)NC(=O)[C@@H](CO)NC(=O)[C@@H](N)Cc2cscn2)[C@@H](C)O)[C@@H](C)O)C(=O)N[C@@H](CCC(N)=O)C(=O)N[C@@H](CCCNC(=N)N)C(=O)N[C@@H](C)C(=O)N1)C(=O)N[C@@H](CCC(=O)O)C(=O)N[C@@H](Cc1c[nH]c2ccccc12)C(=O)N[C@@H](CC(C)C)C(=O)N[C@@H](CC(C)C)C(=O)N[C@@H](C)C(=O)N[C@H](C(=O)NCC(=O)N1CCC[C@H]1C(=O)N[C@@H](CCC(=O)O)C(=O)N[C@@H](CO)C(=O)NCC(=O)N[C@@H](C)C(=O)N1CCC[C@H]1C(=O)N1CCC[C@H]1C(=O)N1CCC[C@H]1C(=O)N[C@@H](CO)C(=O)N[C@@H](CSCCS(=O)(=O)CCN1CCN(CC(=O)O)CCN(CC(=O)O)CCN(CC(=O)O)CC1)C(N)=O)[C@@H](C)O [[^68Ga]Ga-DO3A-S01-GCG, metal not drawn] (H-[Ala(4-thiazolyl)][dS]QGTFTSDYSKQLDEQRAKEFIEWLLATGPESGAPPPSC(DO3A(CH2CH2SO2CH2CH2))-NH2; lactam 16-20)
- Intact radioligand in venous plasma ([1]; 5 minutes after administration): 95.9 ± 1.2%
- Intact radioligand in venous plasma ([1]; 30 minutes after administration): 89.0 ± 2.7%
- Intact radioligand in venous plasma ([1]; 60 minutes after administration): 80.3 ± 3.3%
- Human predicted absorbed dose, heart wall (myocardium) [2, 3]: 0.10 mGy/MBq
- Human predicted absorbed dose, kidneys [2, 3]: 0.29 mGy/MBq
- Human predicted absorbed dose, liver [2, 3]: 0.049 mGy/MBq
- Human predicted absorbed dose, red marrow [2, 3]: 0.039 mGy/MBq
- Human predicted effective dose [2, 3]: 20.6 µSv/MBq
- Annual limit of administered radioactivity, effective dose limiting ([2]; limit 10 mSv/year): 485 MBq
- Annual exposure limit from red marrow absorbed dose ([2]; limit 50 mGy/year): > 1000 MBq
- Annual administration allowed by critical organ kidney ([2]; limit 150 mGy/year): 519 MBq and > 500 MBq

Compound: glucagon
- Effect of co-incubation on [68Ga]Ga-DO3A-S01-GCG binding in human spleen sections (human spleen sections): not affected
- Effect of co-incubation on [68Ga]Ga-DO3A-S01-GCG binding in NHP spleen sections (NHP spleen sections): not affected
- Blocking of [68Ga]Ga-DO3A-S01-GCG binding in rat spleen sections by co-incubation (rat spleen sections): could be blocked
